Measurements reported in a protein production outcome set (Wang et al. 2014).

Assay: label from the status in PepcDB records

Sequence | protein production
MVFFSVVVPTYNRRPILEKCLRALEQQQISAETAIAGYEVVVVDDGSTDGTVDWLKAQASEFPHVRLFEQDHQGPARARNLGVQQAQGDTIIFIDSDLVVTPPFLQAHATGLEKGRQRLGSDRCFTYGAVINTCNFDNPTAEPFKVTDFSNAYFATGNVAIARHWLETAGLFDTAFQLYGWEDLELGVRLKNLGLKLIRCPEAVGYHWHPPFSLEQIPKLIDQESQRGRMGVLFYQKHPTWEVRLMIQMTWLHRLLWGTLSLGGFLNERTLRPLLAWLLKRDRPQLALEIARIFLNWNNVRSVYAAYRESQGLASSLEHHHHHH | not failed
MLANQIKYVILHLTQSIIEYSMANLNCIKAVLAEKGIMSKWLAKTLKKDPATVSKWCNNHSQPDLYTLARIAEVLDVDIHKLICHTKEE | failed
MLKRSIRLLTMGIIWFAISVANSTGRAEKSSDLERYLNTIQDPENIDKPFQPLQAGEYDQAYDYYIQGYYLKAFREALRRAEQNDPFAQTLVARIYMEGCAVPIDGARAALWFGRAAKQGEPQAQLRYGLMLFDGNFIAQNQEIGEEFIRKAVDAGVKEAYYYYGQLLLYKASREKQALAGVFSQSQENEAIDQALKWFLKGAALGDAAAAFAAAKILSLGTLTRPKDDRNARKLMEVAAQNKHLEAQILLAQWLVQGRGGETDFQRAFHLLLSNATKMIAPAQVALARLYRDGIGTKGDIVRAAAWYMLAKHAKIQAPDLEMMLEGMDHAQLEEARKEIIKLLPIF | failed
MSLTNTKTGFSVKDILDLPDTNDEEGSITGTEEDTEGSEATKTPGVLVQSPLENVQNLPLKNPFYDNSDNPYTRWLATTDSIQYSLHGLSANSQDTSAKSPEPSADESPDNDKETSSNGSDSGKKQKEGALFQGTNLRTRAPV | failed
RRRAPLARLRQAIQRCEFFVCYQPIVSLSDGRCVGAEALVRWRQQDGTLILPDQFIPLAERSGLILPITDQVIAASMRELGPLLVADRSLHIAINVSVKDIESGRLLDVLALALQDTGLYRKQLWIEATERSFMDARAAREHIVRLREAGYAVVIDDFGTGYSNLQYLQQLPLDALKIDKSFIDTVGRDVTNTAVASHIIDIAKELGMRTIAEGVEREEQLVYLRARGVDMAQGWLFSSPLSVAEFVDYLSHNRSMHPDD | failed
MMNRLAVRIPTMHSFAWTAADAASRWRLLRISMLLQGFPRNPEPAVRAPDLWRTRVGGGSFGVLFLEAAEVPEALPMQGLSASLVLIAVLAVLAPVATRLLDRWVKVPIVVFEIVLGILFGPSVLGWVQSTPFTDTLADFGLAMLFFVAGNEIDFAAIRGRPIYRASAGWVISLAAGIGAGFVLGPSPEAAVIIGVALCSTALGALLPILRDAGASKSPIGVAATALGAAGEFGPLIAISLFFSGKQLGVASGVLLGFVLLTGVAIYLASQARHTLFHAQVTATLHTSSQFAMRSILLILSSLVVLSMVLGLDMLLGAFAAGVLWKVTIARAPVADRKVIETKIDAVAFGFLVPIFFIDTGIDFDLGALTSSPLTLAMVPLFLSLLLLIRGVPSLLATPPGSSRADKQALLLFGATALPIIVAVTTIGREHGYITSGISSALIGAGMLSVLLFPLLALRLLRRTEAADPKQRTPKA | failed
MRVLHETTQELANWQYYFAIAVFLITYAIIISEKINRAVIALLGAALMVIMGVVDLHNAFTKHIEWGTITLLIGMMILVNITSKSGVFQYVAIKAAKGAQGNPIKILISLSLLTALGSAFLDNVTTVLLVVPVTLSITRILQVNPVPYLLSEIIFSNIGGTATLIGDPPNIMIGSANKHLDFNAFLLNLAPIVIIIIAVTAAILYFMYRKQLIADPVQVKKLMSLDEKQYIKDPVLMKKSLTVLGLTIVGFMTHSIFHVDAAIIALTGATVLMLIGVKEHEIEEVFASVEWVTIFFFAGLFVLVGGLIDIGLIKMLAQKVIGITGGDISYASILILWVSGIASATIDNIPFVATMIPLINDMAVGLGLSPADAQIDVLWWALALGACLGGNGTLIGASANVIVAGIASREGHKFSYMDFLKVGFPIMIVSLIISHIYIYVRYLM | failed
MKKLGFVLFMSMFAFVSVVPAAEAKVIDHDKVQGFSEVTPVTVSQKAAKRFQPYLKVASGCVPFPAVDAQGNTSGGLEPTGAPEGHCSKSVGQVYSRSAWYNGVWAIMYAWYFPKDSPLPLKAFGHRHDWEGIVVWIDNPANQNPKVLSIAYSQHGKFQKTAPNNNIMEGDHPKIRYDAPQPPINHSLYVDSAKGGTQPLIGWEDLTPAARNALNTTDFGSANVPFNDHNFTNNLGKAWFR | failed
MKFIIEALKRVRERRPLVHNITNFVVMNTTANALLALGASPVMAHAEEELEEMIRLADAVVINIGTLDSGWRRSMVKATEIANELGKPIVLDPVGAGATKFRTRVSLEILSRGVDVLKGNFGEISALLGEEGKTRGVDSLEYGEEEAKKLTMNAAREFNTTVAVTGAVDYVSDGRRTFAVYNGHELLGRVTGTGCMVAALTGAFVAVTEPLKATTSALVTFGIAAEKAYEEAKYPGSFHVKLYDWLYRINENVIRTYAKVREVEL | not failed
MKSALSDFILGKKGIYGILHIIILLMSLFLVISISIDTFKGIPFYTQSSYMKIQLWICIWFLFDFVLEFFLAKHKWRYIRTHFIFLLVAIPYQNIIAYYGWTFSPEVTYLLRFIPLLRGGYALAIVVGWLTYNRASSLFVSYLTMLLATVYFASLAFFVLEHKVNPLVTDYGDALWWAFMDVTTVGSNIIAMTTTGRVLSVLLAALGMMMFPIFTVYITNLIQQSNQKKKQYYAEEEEKTASA | failed
MIEAYKDYWKRYIDFKGKSNRLEFWTPVLVHIISIFIIALIGAFSFIVGIFIVAAVLSALIGLFGLANIVPMAAVTLRRFYDAGRKRTTAIILIILSVVVNIVFDIIQVDSIAVFLNIVSIICTIILVIETLLPSKNVEDAQLKWL | failed
PDATSKKVVPLGVEIYEINGPFFFGVADRLKGVLDVIEETPKVFILRMRRVPVIDATGMHALWEFQESCEKRGTILLLSGVSDRLYGALNRFGFIEALGEERVFDHIDKALAYAKLLVETAEERGRES | not failed
STTTTTKKPHVLVIPFPQSGHMVPHLDLTHQILLRGATVTVLVTPKNSSYLDALRSLHSPEHFKTLILPFPSHPCIPSGVESLQQLPLEAIVHMFDALSRLHDPLVDFLSRQPPSDLPDAILGSSFLSPWINKVADAFSIKSISFLPINAHSISVMWAQEDRSFFNDLETATTESYGLVINSFYDLEPEFVETVKTRFLNHHRIWTVGPLLPFKAGVDRGGQSSIPPAKVSAWLDSCPEDNSVVYVGFGSQIRLTAEQTAALAAALEKSSVRFIWAVRDAAKKVNSSDNSVEEDVIPAGFEERVKEKGLVIRGWAPQTMILEHRAVGSYLTHLGWGSVLEGMVGGVMLLAWPMQADHFFNTTLIVDKLRAAVRVGENRDSVPDSDKLARILAESAREDLPERVTLMKLREKAMEAIKEGGSSYKNLDELVAEMCL | failed
MRKKQKLPFDKLAIALMSTSILLNAQSDIKANTVTEDTPAAEQAVETPQPTAVSEEVPSSKETKTPQTPDNAEETVADKANDLALQAPAKTADTPATSKATIRDLNDPSQVKTLQEKAGKGAGTVVAVIDAGFDKNHEAWRLTDKTKARYQSKEDLEKAKKEHGITYGEWVNDKVAYYHDYSKDGKTAVDQEHGTHVSGILSGNAPSETKEPYRLEGAMPEAQLLLMRVEIVNGLADYARNYAQAIRDAVNLGAKVINMSFGNAALAYANLPDETKKAFDYAKSKGVSIVTSAGNDSSFGGKTRLPLADHPDYGVVGTPAAADSTLTVASYSPDKQLTETATVKTADQQDKEMPVLSTNRFEPNKAYDYAYANRGMKEDDFKDVKGKIALIERGDIDFKDKIANAKKAGAVGVLIYDNQDKGFPIELPNVDQMPAAFISRKDGLLLKENPQKTITFNATPKVLPTASGTKLSRFSSWGLTADGNIKPDIAAPGQDILSSVANNKYAKLSGTSMSAPLVAGIMGLLQKQYEIQYPDMTPSERLDLAKKVLMSSATALYDEDEKAYFSPRQQGAGAVDAKKASAATMYVTDKDNTSSKVHLNNVSDKFEVTVTVHNKSDKPQELYYQATVQTDKVDGKHFALAPKALYETSWQKITIPANSSKQVTVPIDASRFSKDLLAQMKNGYFLEGFVRFKQDPKKEELMSIPYIGFRGDFGNLSALEKPIYDSKDGSSYYHEANSDAKDQLDGDGLQFYALKNNFTALTTESNPWTIIKAVKEGVENIEDIESSEITETIFAGTFAKQDDDSHYYIHRHANGKPYAAISPNGDGNRDYVQFQGTFLRNAKNLVAEVLDKEGNVVWTSEVTEQVVKNYNNDLASTLGSTRFEKTRWDGKDKDGKVVANGTYTYRVRYTPISSGAKEQHTDFDVIVDNTTLEVATSATFSTEDRRLTLASKPKTSQPIYRERIAYTYMDEDLPTTEYISPNEDGTFTLPEEAETMEGATVPLKMSDFTYVVEDMAGNITYTPVTKLLEGHSNKPEQDGSDQAPDKKPEAKPEQDGSGQTPDKKPETKPEKDSSGQTPGKTPQKGQPSRTLEKRSSKRALATKASARDQLPTTNDKDTNRLHLLKLVMTTFFFGLVAHIFKTKRQKETKK | failed
ALKQKIIGNGEKRVVTYAPTWREDDFISVGHYHFRWHFSLKKMMGLLPEDVMLLIRPHYLVTDRIDIKGFEDRVVIDSTTDMNEIYLITDLMVTDYSSVMFDFAILKRPMLFFAYDLEYYRDDLRGFYFDYYTELPGSIVTDETHLLAEIDQLLQNNFAELDPERFNKFAKRFVSWERGTAAQQVIEKINY | not failed
MRLDHLRLQNFRCYEDAHFDFQPGFNLVVGVNGSGKTSLLLGVAECLIPYGNAMGQGQEILSKEDVRFVIDRHEGRSRFERKFPVFIRADGDIFDLPNWRAVRLLEPWEGGVDPSSLSHLSAVLARNNAGEQIDFPVLAFYRANRRWSSARISAEFAAQQRTSRFDGYANWFDAVADLRDFESWLIARTLERLQDRLDSTPTVEREDELEWVNRAIRLAIPDAHDLRYDLRLQSLLVDMGEGNAVPFHELSDGQRSLIALIADIARRMCVLNPHIGKDVLANTGGIVIIDELDIHLHPAWQRNIAPTLKKAFPKVQFIATSHSPQVIGSLQPGEVILLKNGDSSHPRATYGLDSSTILEEVMGVPQREPEIEVLLDELFSTLENNELEKARLQLDALKKKAPDLPEFAGAEALLKRKELIGRLEHHHHHH | not failed
MGSLMSGWDSRVRDPKSVRRCKSLTREEIDTFWKTKKKNEEEEHVQAFSKLVTQEGAQSQAKEKKSVDDLFENQSKSSGWWRKTYWAFLNEPREEEGRPNNYVSQFKVAHIAKIAGS | failed
MASSLITSAVIVVVLSLVLGSVEQVSGLRHVPKSPKTTDVKHPDFLVTIEPKPTILIPGVGRFLLPPKCKKPFYPYNPVTGAPLTGGGIPSYNGGQGAGPHTQLPGGDDTLVPNPGFEAPTPTIGAGTGSNGQVPPVPLP | failed
MNINLSVPYAAEGPGPTINTLGQVDGEDVVSISSADLDETEGNLNMTTVSVRSGMTLSQVISRWLFTDDTIVPIEQVFPPGQSTEEVEESNRTAFISSESSATIAAMNYLNIPVEVEVAEVLTDSAATGIFEPGDKLLSIDGTAISTPGDAQTIVRSKAPGDEITISYERNDAESQATITLREHPDDSSVALLGISMLSVPSSAIEVDYNLEDIGGPSAGMMFSLAVVDKLSPGALNGGKFVAGTGTIAEDGSVGPIGGIAHKVRAAEDAGAEVFLSPADNCAEAMSAKPQDMTILKVDSLSQAIDQMAAYNEGLEHHHHHH | not failed
MNTYAQESKLRLKTKIGADGRCVIEDNFFTPPFKLMAPFYPKDDLAEIMLLAVSPGMMRGDAQDVQLNIGPNCKLRITSQSFEKIHNTEDGFASRDMHIVVGENAFLDFAPFPLIPFENAHFKGNTTISLRSSSQLLYSEIIVAGRVARNELFKFNRLHTKISILQDEKPIYYDNTILDPKTTDLNNMCMFDGYTHYLNLVLVNCPIELSGVRECIEESEGVDGAVSETASSHLCVKALAKGSEPLLHLREKIARLVTQTTTQKV | failed
